In patent US20170355770A1 (ASKGENE PHARMA, published 2017):

T1: human PDL2 (human, UniProt Q9BQ51 20-219, limits assumed)
T1 construct: Bought protein
T1 sequence (looked up): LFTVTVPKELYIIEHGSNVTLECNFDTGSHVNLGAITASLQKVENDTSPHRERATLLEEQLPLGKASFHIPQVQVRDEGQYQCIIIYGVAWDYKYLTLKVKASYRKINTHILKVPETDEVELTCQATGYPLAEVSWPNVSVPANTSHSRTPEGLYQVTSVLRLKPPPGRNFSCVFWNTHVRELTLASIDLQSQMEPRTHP


Experiments:
[1] = molecular target: PD-L1 ligand (analyte of the Octet affinity measurement) (UniProt Q9NZQ7 19-238, limits assumed); experiment: BLI (Octet RED 96), antibody captured on anti-human IgG sensor, PD-L1 in solution, 1:1 fit
Experimental: Affinity Measurement: The affinity measurement was conducted with Octet RED 96 (ForteBio) instrument at 30 degree Celsius. Briefly, anti-human IgG capture sensor (AHC from ForteBio cat #18-5060) was equilibrated with assay buffer (1× dilution of 10× Kinetics Buffer (ForteBio, Cat #18-5032). Test antibody samples were diluted to 3 ug/mL and allowed to bind to the sensors for 5 min. The sensors were then washed in assay buffer for 3 minutes, and PD-L1 ligand diluted at different concentrations were allowed to bind to the mAb coated on the sensors for 5 minutes. Afterwards, dissociation was followed for 10 minutes in the assay buffer. The sensors could be regenerated by washing in glycine buffer and assay buffer 3 times. The data were fitted with 1:1 binding model using the ForteBio software.

[2] = molecular target: T1, human PDL2; experiment: ELISA, coated human PDL2
[3] = molecular target: human PD-L1 expressed on cells (human, UniProt Q9NZQ7 19-290); experiment: cell-based or functional assay
[4] = molecular target: T1, human PDL2; experiment: ELISA on coated human PDL2 (printed: hu PDL2-Fc), purified chimeric antibody [panel hu PDL2-Fc ELISA]
Experimental: PD-L1 binding ELISAs: B cell cloning supernatants were tested for binding to PD-L1 by ELISA. ELISA plates were coated with 100 uL antigen at 0.5 or 1 ug/mL in PBS (Life Technologies, cat. #14190-250) overnight at 4° C. or for 1 hour at 37° C. […] Plates were then blocked with PBS+10% goat serum for 1 hour. After washing with deionized water, samples were added in PBS/10% goat serum and incubated for 1 hour. […] Plates were then washed with deionized water and 100 uL TMB substrate (Thermo Scientific, cat. #PI134021) was added to each well. Development was stopped with 100 uL 1N H₂SO₄, and OD450 was measured using a microplate spectrophotometer.
Purified chimeric and humanized antibodies were tested for binding to PD-L1 by ELISA. Antigens tested include; human PD-L1-Fc, human PD-L1-his, murine PD-L1-his, and cynomolgus PD-L1-his (Sinobiological, cat. #90251-CO8H) and human PDL2 (Acrobiosystems, cat. #PD2-H5251). Protocols were the same as for testing B cell cloning supernatants except that the secondary antibodies were as follows; for human PD-L1-Fc the secondary was goat anti-human kappa-HRP (Novex, Life Technologies, cat. #A18853), for human PD-L1-his, murine PD-L1-his and cynomolgus PD-L1-his the secondary was goat anti-human IgG Fc-HRP (Jackson ImmunoResearch, cat. #109-005-098).

[5] = molecular target: T2, human PD-L1-Fc (human, UniProt Q9NZQ7 19-238, limits assumed); experiment: competition ELISA: coated human PD-L1-Fc, antibody added first, then PD1-his, detected with anti-His-HRP
T2 construct: Bought fusion protein; not shown: Fc part
T2 sequence (Q9NZQ7 19-238 limits assumed): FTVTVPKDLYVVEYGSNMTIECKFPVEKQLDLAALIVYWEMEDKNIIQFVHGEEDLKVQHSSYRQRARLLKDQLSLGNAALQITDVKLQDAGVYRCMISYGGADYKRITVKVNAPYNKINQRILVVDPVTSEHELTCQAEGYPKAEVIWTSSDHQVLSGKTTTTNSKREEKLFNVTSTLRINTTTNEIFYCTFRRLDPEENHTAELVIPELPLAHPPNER

Sequence of PD-L1 ligand (analyte of the Octet affinity measurement) (Q9NZQ7 19-238 limits assumed): as above
Sequence of human PD-L1 expressed on cells (Q9NZQ7 19-290): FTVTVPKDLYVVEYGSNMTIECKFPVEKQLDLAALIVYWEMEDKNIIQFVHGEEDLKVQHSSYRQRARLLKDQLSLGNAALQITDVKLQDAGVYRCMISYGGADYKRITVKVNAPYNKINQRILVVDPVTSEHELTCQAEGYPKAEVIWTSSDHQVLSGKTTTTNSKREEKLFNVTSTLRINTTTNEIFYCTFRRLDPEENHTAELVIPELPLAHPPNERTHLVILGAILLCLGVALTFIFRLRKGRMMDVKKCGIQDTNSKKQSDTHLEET

Binder	Kd [1]	koff [1]	kon [1]	binding result [2]	EC50 of the rise of luciferase activity, PD1/PD-L1 blockade reporter assay (CHO-K1/TCRA/PD-L1 cells with PD1/NFAT Jurkat cells); column Chimeric of the table under the plot [3]	binding result [4]	IC50 (read off the curve) [5]
chimeric anti-PD-L1 antibody 111H2 (antibody, V domains shown, also called chimeric anti-PD-L1 111H2 antibody) VH: QEQLVESGGGLVQPGGTLKLSCKGSGFDLSSNAMCWVRQAPGKGLEWIGCIVYGNCYYASWVNGRFTISSDNAQSSVDLQLNSLTAADTATYFCARDPAGSSVYTGGFNIWGPGTLVTVSS VL: AIDMTQTPSPVSAAVGDTVTINCQASENIYSFLAWYQQKPGHSPKPLIYFASKLASGVPSRFKGSGSGTQFTLTISDVQCDDAATYYCQQTVSYKNADTAFGGGTKVVVVR	0.183 nM	0.000197 s⁻¹	1.07e+06 M⁻¹ s⁻¹	no binding	0.0483 µg/mL	–	–
chimeric anti-PD-L1 antibody 110B4 (antibody, V domains shown) VH: CQSVKESEGGLFKPTDTLTLTCKVSGIDLSSISISWVRQAPGNGLEWIGVINSYGNTYYASWAKSRSTITRNTNENTVTLKMTSLTAADTATYFCAKEILYYGMDLWGPGTLVTVSS VL: DVVMTQTPASVEAAVGGTVTIKCQASQSISSYFSWYQQKPGQRPKLLIYDASNLESGVPSRFKGSRSGTEYTLTISDLEWDDAATYYCQCTYGSTSSSNYGNNFGGGTKVVVVR	0.173 nM	6.87e-05 s⁻¹	404000 M⁻¹ s⁻¹	no binding	–	–	–
chimeric anti-PD-L1 antibody 113F1 (antibody, V domains shown) VH: CQSVKESEGGLFKPTDTLTLTCTVSGIDLSSIAISWVRQAPGNGLEWIGTINSYGSTYYASWAQSRSTITRNTNENTVTLKMTSLTAADTASYFCAKEILYYGMDVWGPGTLVTVSS VL: DVVMTQTPASVEAAVGGTVTIKCQASQSISSYLAWYQQKPGQPPKLLIYAASNLESGVPSRFKGSGSGTEYTLTISDLECDDAATYYCQSTYGTTSTSDYGNAFGGGTKVVVVR	0.115 nM	3.78e-05 s⁻¹	362000 M⁻¹ s⁻¹	–	–	no binding (tested: 4 µg/mL)	–
chimeric anti-PD-L1 antibody 115E2 (antibody, V domains shown) VH: CQSVKESEGGLFKPMDTLTLTCTVSGIDLGSVAISWVRQAPGKGLEWIGTIGSSGSAYYASWAKSRSTITRNTNLNTVTLKMTSLTAADTASYFCAKEILYYGMDRWGPGTLVTVSS VL: DVVMTQTPASVEASVGGTVTINCQASQSISSYLAWYQQKPGQPPKLLIYAASNLEPGVPSRFKGSGSGTEFTLTISDLECADAATYYCQATYGSTSSSDYGNAFGGGTKVVVVR	0.1 nM	4.99e-05 s⁻¹	532000 M⁻¹ s⁻¹	–	–	no binding (tested: 4 µg/mL)	–

Stronger by Kd [1], values ahead:

Kd [1]	koff [1]	kon [1]	binding result [2]	EC50 of the rise of luciferase activity, PD1/PD-L1 blockade reporter assay (CHO-K1/TCRA/PD-L1 cells with PD1/NFAT Jurkat cells); column Chimeric of the table under the plot [3]	binding result [4]	IC50 (read off the curve) [5]	Binder
0.051 nM	2.08e-05 s⁻¹	455000 M⁻¹ s⁻¹	–	–	no binding (tested: 4 µg/mL)	–	chimeric anti-PD-L1 antibody 115C1 (antibody, V domains shown) VH: CQSVKESEGGLFKPTDTLTLTCTVSGFSLSSVAVSWVRQAPGKGLEWIGTISYTGNTYYASWAKSRSTITRNTNENTVTLKMPSLTVADTATYFCAKEILYYGMDFWGPGTLVTVSS VL: DIVMTQTPSSVSAAVGGTVTINCQASQSISSYLAWYQQKPGQPPKLLIYGASNLESGVPSRFKGSGSGTDFTLTISDLECADAATYYCQSTYGSTSTSDYGNAFGGGTKVVVVR
< 0.001 nM	< 1e-07 s⁻¹	682000 M⁻¹ s⁻¹	–	–	no binding (tested: 4 µg/mL)	~0.2 µg/mL	chimeric anti-PD-L1 antibody 116F3 (antibody, V domains shown) VH: CQSVKESEGGLFKPTDTLTLTCTVSGIDLSSISIGWVRQAPGNGLEWIGTISDSGSAYYASWAKSRSTITRNTNENTVTLKMTSLTAADTASYFCAKEILYYGMDLWGPGTLVTVSS VL: DVVMTQTPASVSGAVGGTVTIKCQASEDIESYLAWYQQKPGQPPKLLIYAASNLEPGVPSRFKGSRSGTEYTLTITDLECDDAATYHCQATYGSTSSSDYGNAFGGGTKVVVVR
< 0.001 nM	< 1e-07 s⁻¹	755000 M⁻¹ s⁻¹	no binding	–	–	–	chimeric anti-PD-L1 antibody 110H8 (antibody, V domains shown) VH: CQSVKESEGGLFKPTDTLTLTCTVSGIDLSSVSISWVRQAPGNGLEWIGTIGASGSAYYASWAKRRSTITRNTNLNTVTLKMTSLTAADTASYFCAKEILYYGMDLWGPGTLVTVSS VL: DVVMTQTPASVEAAVGGTVTIKCQASQSISNYLAWYQQKPGQRPKLLIYAASNLEPGVPSRFKGSGSGTEYTLTITDLECDDAATYHCQCTYGSTSSSDYGNAFGGGTKVVVVR
